Measured values: article PMC6367718 (Cell, 2019)

T1: TRV055-occupied FLAG-AT1R (human, UniProt P30556)
T1 chain 1: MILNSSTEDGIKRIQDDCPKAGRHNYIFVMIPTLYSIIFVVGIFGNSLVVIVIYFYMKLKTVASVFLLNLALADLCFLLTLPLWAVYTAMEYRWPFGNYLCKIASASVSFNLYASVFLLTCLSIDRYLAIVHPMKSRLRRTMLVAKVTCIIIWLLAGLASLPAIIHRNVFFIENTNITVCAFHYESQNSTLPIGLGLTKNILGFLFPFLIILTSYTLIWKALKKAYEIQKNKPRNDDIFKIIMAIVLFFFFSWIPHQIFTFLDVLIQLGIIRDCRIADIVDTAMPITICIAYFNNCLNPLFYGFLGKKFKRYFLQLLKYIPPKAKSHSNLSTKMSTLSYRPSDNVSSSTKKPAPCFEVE
T1 chain 2: GVYIHPF

B1: Nb.AT110, purified (VHH)
VHH: QVQLQESGGGLVQAGGSLRLSCAASGNIFDADIMGWYRQAPGKERELVASITDGGSTNYADSVKGRFTISRDNAKNTVYLQMNSLKPEDTAVYYCAAIAYPDIPTYFDYDSDYFYWGQGTQVTVSS
B2: Nb.AT110i1, carboxypeptidase A-treated (for crystallography) (VHH)
VHH: QVQLQESGGGLVQAGGSLRLSCAASGNIFDVDIMGWYRQAPGKERELVASITDGGSTDYADSVKGRFTISRDNAKNTVYLQMNSLKPEDTAVYYCAAVAYPDIPTYFDYDSDNFYWGQGTQVTVSS

Assays:
[1] = target: T1, TRV055-occupied FLAG-AT1R; experiment: radioligand binding
crystal structure = target: the molecule itself; experiment: crystal structure

Binder | log EC50 (M) of the change in the log IC50 of TRV055 [1] [log M] | binding result (crystal structure)
B1 | -6.6 | 
B2 |  | binds
